Laboratory results as given in article PMC7611114 (Nature chemistry, 2021).

Molecular target: the molecule itself
Assay: crystal structure

For Ac-GKKSAWATVISALATVISALATVISAWATVG-NH2 [K2-CCTM-VbIc], the “stoichiometry N” value was 8.
